The nature of data set [1]: viral titre at 24 hpi, MOI 0.01. The note with it: glycan lost; control: rPEDV-WT.
A short description of data set [2]: BAC transfection of Vero cells; CPE, western blot. The note with it: glycan lost; control: rPEDV-WT.

B1: spike (S) protein: N324Q (protein)
parent chain: MKSLTYFWLFLPVLSTLSLPQDVTRCSANTNFRRFFSKFNVQAPAVVVLGGYLPIGENQGVNSTWYCAGQHPTASGVHGIFVSHIRGGHGFEIGISQEPFDPSGYQLYLHKATNGNTNATARLRICQFPSIKTLGPTANNDVTTGRNCLFNKAIPAHMSEHSVVGITWDNDRVTVFSDKIYYFYFKNDWSRVATKCYNSGGCAMQYVYEPTYYMLNVTSAGEDGISYQPCTANCIGYAANVFATEPNGHIPEGFSFNNWFLLSNDSTLVHGKVVSNQPLLVNCLLAIPKIYGLGQFFSFNQTIDGVCNGAAVQRAPEALRFNINDTSVILAEGSIVLHTALGTNFSFVCSNSSDPHLATFATPLGATQVPYYCFLKVDTYNSTVYKFLAILPPTVREIVITKYGDFYVNGFGYLHLGLLDAVTINFTGHGTDDDVSGFWTIASTNFVDALIEVQGTAIQRILYCDDPVSQLKCSQVSFDLDDGFYPISSRNLLSHEQPISFVTLPSFNDHSFVNITVSASFGGHSGANLIASDTTINGFSSFCVETRQFTISLFYNVTNSYGYVSKSQDSNCPFTLQSVNDYLSFSKFCVSTSLLASACTIDLFGYPEFGSGVKFTSLYFQFTKGELITGTPKPLVGVTDVSFMTLDVCTKYTIYGFKGEGIITLTNSSFLAGIYYTSDSGQLLAFKNVTSGAVYSVTPCSFSEQAAYVDDDIVGVISSLSNSTFNSTRELPGFFYHSNDGSNCTEPVLVYSNIGVCKSGSIGYVLSKSGQVKIAPTVTGNISIPTNFSMSIRTEYLQLYNTPVSVDCATYVCNGNSRCKQLLTQYIAACKTIESALQLSARLESAEVNSMLTISEEALQLATISSFNGDGYNFTNVLGVSVRDPASGRVVQKRSFIEDLLFNKVVTNGLGTVDEDYKRCSNGRSVADLVCAQYYSGVMVLPGVVDAEKLHMYSASLIGGMVLGGFTAAAALPFSYAVQARLNYLALQTDVLQRNQQLLAESFNSAIGDITSAFESVKEAISQTSKGLNTVAHALTKVQEVVNSQGAALTQLTVQLQHNFQAISSSIDDIYSRLDILSADVQVDRLITGRLSALNAFVAQTLTKYTEVQASRKLAQQKVNECVKSQSQRYGFCGGDGEHIFSLVQAAPQGLLFLHTVLVPGDFVDVIAIAGLCVNDEIALTLREPGLVLFTHELQNHTATEYFVSSRRMFEPRKPTVSDFVQIESCVVTYVNLTRDQLPDVIPDYIDVNKTLYEILASLPNRTGPSLPLDVFNATYLNLTGEIADLEQRSESLRNTTEELQSLIYNINNTLVDLEWLNRVETYIKWPWWVWLIIFIVLIFVVSLLVFCCISTGCCGCCGCCGACFAGCCRGPRLQPYEAFEKVHVQ
Regarding B1, the “other: viral replication” value in data set [1] is given as “no change”. For the same protein, in data set [2], the “other: virus rescue (viability), other: viruses recovered/attempts” value (shortened to “other … viruses recovered/attempts”) is listed as “no change”.

B2: spike (S) protein: N351Q (protein)
parent chain: MKSLTYFWLFLPVLSTLSLPQDVTRCSANTNFRRFFSKFNVQAPAVVVLGGYLPIGENQGVNSTWYCAGQHPTASGVHGIFVSHIRGGHGFEIGISQEPFDPSGYQLYLHKATNGNTNATARLRICQFPSIKTLGPTANNDVTTGRNCLFNKAIPAHMSEHSVVGITWDNDRVTVFSDKIYYFYFKNDWSRVATKCYNSGGCAMQYVYEPTYYMLNVTSAGEDGISYQPCTANCIGYAANVFATEPNGHIPEGFSFNNWFLLSNDSTLVHGKVVSNQPLLVNCLLAIPKIYGLGQFFSFNQTIDGVCNGAAVQRAPEALRFNINDTSVILAEGSIVLHTALGTNFSFVCSNSSDPHLATFATPLGATQVPYYCFLKVDTYNSTVYKFLAILPPTVREIVITKYGDFYVNGFGYLHLGLLDAVTINFTGHGTDDDVSGFWTIASTNFVDALIEVQGTAIQRILYCDDPVSQLKCSQVSFDLDDGFYPISSRNLLSHEQPISFVTLPSFNDHSFVNITVSASFGGHSGANLIASDTTINGFSSFCVETRQFTISLFYNVTNSYGYVSKSQDSNCPFTLQSVNDYLSFSKFCVSTSLLASACTIDLFGYPEFGSGVKFTSLYFQFTKGELITGTPKPLVGVTDVSFMTLDVCTKYTIYGFKGEGIITLTNSSFLAGIYYTSDSGQLLAFKNVTSGAVYSVTPCSFSEQAAYVDDDIVGVISSLSNSTFNSTRELPGFFYHSNDGSNCTEPVLVYSNIGVCKSGSIGYVLSKSGQVKIAPTVTGNISIPTNFSMSIRTEYLQLYNTPVSVDCATYVCNGNSRCKQLLTQYIAACKTIESALQLSARLESAEVNSMLTISEEALQLATISSFNGDGYNFTNVLGVSVRDPASGRVVQKRSFIEDLLFNKVVTNGLGTVDEDYKRCSNGRSVADLVCAQYYSGVMVLPGVVDAEKLHMYSASLIGGMVLGGFTAAAALPFSYAVQARLNYLALQTDVLQRNQQLLAESFNSAIGDITSAFESVKEAISQTSKGLNTVAHALTKVQEVVNSQGAALTQLTVQLQHNFQAISSSIDDIYSRLDILSADVQVDRLITGRLSALNAFVAQTLTKYTEVQASRKLAQQKVNECVKSQSQRYGFCGGDGEHIFSLVQAAPQGLLFLHTVLVPGDFVDVIAIAGLCVNDEIALTLREPGLVLFTHELQNHTATEYFVSSRRMFEPRKPTVSDFVQIESCVVTYVNLTRDQLPDVIPDYIDVNKTLYEILASLPNRTGPSLPLDVFNATYLNLTGEIADLEQRSESLRNTTEELQSLIYNINNTLVDLEWLNRVETYIKWPWWVWLIIFIVLIFVVSLLVFCCISTGCCGCCGCCGACFAGCCRGPRLQPYEAFEKVHVQ
In the case of B2, the “other: viral replication” value in data set [1] was “no change”. In addition, the “other … viruses recovered/attempts” value in data set [2] is recorded as “no change”.

B3: spike (S) protein: N344Q (protein)
parent chain: MKSLTYFWLFLPVLSTLSLPQDVTRCSANTNFRRFFSKFNVQAPAVVVLGGYLPIGENQGVNSTWYCAGQHPTASGVHGIFVSHIRGGHGFEIGISQEPFDPSGYQLYLHKATNGNTNATARLRICQFPSIKTLGPTANNDVTTGRNCLFNKAIPAHMSEHSVVGITWDNDRVTVFSDKIYYFYFKNDWSRVATKCYNSGGCAMQYVYEPTYYMLNVTSAGEDGISYQPCTANCIGYAANVFATEPNGHIPEGFSFNNWFLLSNDSTLVHGKVVSNQPLLVNCLLAIPKIYGLGQFFSFNQTIDGVCNGAAVQRAPEALRFNINDTSVILAEGSIVLHTALGTNFSFVCSNSSDPHLATFATPLGATQVPYYCFLKVDTYNSTVYKFLAILPPTVREIVITKYGDFYVNGFGYLHLGLLDAVTINFTGHGTDDDVSGFWTIASTNFVDALIEVQGTAIQRILYCDDPVSQLKCSQVSFDLDDGFYPISSRNLLSHEQPISFVTLPSFNDHSFVNITVSASFGGHSGANLIASDTTINGFSSFCVETRQFTISLFYNVTNSYGYVSKSQDSNCPFTLQSVNDYLSFSKFCVSTSLLASACTIDLFGYPEFGSGVKFTSLYFQFTKGELITGTPKPLVGVTDVSFMTLDVCTKYTIYGFKGEGIITLTNSSFLAGIYYTSDSGQLLAFKNVTSGAVYSVTPCSFSEQAAYVDDDIVGVISSLSNSTFNSTRELPGFFYHSNDGSNCTEPVLVYSNIGVCKSGSIGYVLSKSGQVKIAPTVTGNISIPTNFSMSIRTEYLQLYNTPVSVDCATYVCNGNSRCKQLLTQYIAACKTIESALQLSARLESAEVNSMLTISEEALQLATISSFNGDGYNFTNVLGVSVRDPASGRVVQKRSFIEDLLFNKVVTNGLGTVDEDYKRCSNGRSVADLVCAQYYSGVMVLPGVVDAEKLHMYSASLIGGMVLGGFTAAAALPFSYAVQARLNYLALQTDVLQRNQQLLAESFNSAIGDITSAFESVKEAISQTSKGLNTVAHALTKVQEVVNSQGAALTQLTVQLQHNFQAISSSIDDIYSRLDILSADVQVDRLITGRLSALNAFVAQTLTKYTEVQASRKLAQQKVNECVKSQSQRYGFCGGDGEHIFSLVQAAPQGLLFLHTVLVPGDFVDVIAIAGLCVNDEIALTLREPGLVLFTHELQNHTATEYFVSSRRMFEPRKPTVSDFVQIESCVVTYVNLTRDQLPDVIPDYIDVNKTLYEILASLPNRTGPSLPLDVFNATYLNLTGEIADLEQRSESLRNTTEELQSLIYNINNTLVDLEWLNRVETYIKWPWWVWLIIFIVLIFVVSLLVFCCISTGCCGCCGCCGACFAGCCRGPRLQPYEAFEKVHVQ
Consider B3, for which the “other: viral replication” value in data set [1] is reported as “no change”. Besides, the “other … viruses recovered/attempts” value in data set [2] was “no change”.

B4: spike (S) protein: N381Q (protein)
parent chain: MKSLTYFWLFLPVLSTLSLPQDVTRCSANTNFRRFFSKFNVQAPAVVVLGGYLPIGENQGVNSTWYCAGQHPTASGVHGIFVSHIRGGHGFEIGISQEPFDPSGYQLYLHKATNGNTNATARLRICQFPSIKTLGPTANNDVTTGRNCLFNKAIPAHMSEHSVVGITWDNDRVTVFSDKIYYFYFKNDWSRVATKCYNSGGCAMQYVYEPTYYMLNVTSAGEDGISYQPCTANCIGYAANVFATEPNGHIPEGFSFNNWFLLSNDSTLVHGKVVSNQPLLVNCLLAIPKIYGLGQFFSFNQTIDGVCNGAAVQRAPEALRFNINDTSVILAEGSIVLHTALGTNFSFVCSNSSDPHLATFATPLGATQVPYYCFLKVDTYNSTVYKFLAILPPTVREIVITKYGDFYVNGFGYLHLGLLDAVTINFTGHGTDDDVSGFWTIASTNFVDALIEVQGTAIQRILYCDDPVSQLKCSQVSFDLDDGFYPISSRNLLSHEQPISFVTLPSFNDHSFVNITVSASFGGHSGANLIASDTTINGFSSFCVETRQFTISLFYNVTNSYGYVSKSQDSNCPFTLQSVNDYLSFSKFCVSTSLLASACTIDLFGYPEFGSGVKFTSLYFQFTKGELITGTPKPLVGVTDVSFMTLDVCTKYTIYGFKGEGIITLTNSSFLAGIYYTSDSGQLLAFKNVTSGAVYSVTPCSFSEQAAYVDDDIVGVISSLSNSTFNSTRELPGFFYHSNDGSNCTEPVLVYSNIGVCKSGSIGYVLSKSGQVKIAPTVTGNISIPTNFSMSIRTEYLQLYNTPVSVDCATYVCNGNSRCKQLLTQYIAACKTIESALQLSARLESAEVNSMLTISEEALQLATISSFNGDGYNFTNVLGVSVRDPASGRVVQKRSFIEDLLFNKVVTNGLGTVDEDYKRCSNGRSVADLVCAQYYSGVMVLPGVVDAEKLHMYSASLIGGMVLGGFTAAAALPFSYAVQARLNYLALQTDVLQRNQQLLAESFNSAIGDITSAFESVKEAISQTSKGLNTVAHALTKVQEVVNSQGAALTQLTVQLQHNFQAISSSIDDIYSRLDILSADVQVDRLITGRLSALNAFVAQTLTKYTEVQASRKLAQQKVNECVKSQSQRYGFCGGDGEHIFSLVQAAPQGLLFLHTVLVPGDFVDVIAIAGLCVNDEIALTLREPGLVLFTHELQNHTATEYFVSSRRMFEPRKPTVSDFVQIESCVVTYVNLTRDQLPDVIPDYIDVNKTLYEILASLPNRTGPSLPLDVFNATYLNLTGEIADLEQRSESLRNTTEELQSLIYNINNTLVDLEWLNRVETYIKWPWWVWLIIFIVLIFVVSLLVFCCISTGCCGCCGCCGACFAGCCRGPRLQPYEAFEKVHVQ
In the case of B4, the “other: viral replication” value in data set [1] is “no change”. Moreover, the “other … viruses recovered/attempts” value in data set [2] was “no change”.

The values above are taken from publication PMC12395675.
